Patent US11278600B2, “Human alpha-galactosidase variants” (Codexis, Inc., priority 2014, dated 2022)

How the values were obtained:
Type in all cases: biochemical
[1] = HTP-analysis of yeast culture supernatants, no challenge (MUGal hydrolysis)
Outline: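 GLA variants expressed in yeast INVSc1, secreted into SD-Ura broth over 66-84 h at 30° C; clarified supernatants tested without challenge. Supernatant mixed with McIlvaine buffer pH 4.8 and 2 mM MUGal (citrate/KCl, pH 4.6), 37° C for 30-180 min, carbonate-quenched, fluorescence Ex 355/Em 448 nm.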

[2] = HTP-analysis of supernatants pretreated with base (MUGal hydrolysis); details: for Relative Activity of GLA Variants After Challenge at pH 9.65: activity of the variant/activity of Rd4BB (SEQ ID NO: 15); for Relative Activity of GLA Variants After Challenge at pH 9.7: activity of the variant/activity of Rd3BB (SEQ ID NO: 13)
Outline: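 Fluorescence of released 4-MU (Ex 355 nm, Em 448 nm) after carbonate quench reports MUGal hydrolysis by GLA variants secreted from INVSc1 yeast. Before the acidic (pH 4.3-4.8) 30-180 min reaction at 37° C, supernatants had been pre-incubated at pH 7.0-9.7 for 1-18 h at 37° C.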

[3] = HTP-analysis of supernatants pretreated with acid (MUGal hydrolysis); details: challenge at pH 3.7
Outline: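 Yeast INVSc1 supernatant, GLA variants; acid challenge: McIlvaine pH 3.3-4.3, 37° C., 1-3 h. Assay: MUGal in McIlvaine pH 4.8 plus citrate pH 4.3, 37° C., 30-180 min, Na2CO3 stop, Ex 355/Em 448 nm.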

[4] = activity of the variant/activity of Rd4BB (SEQ ID NO: 15)
[5] = activity of the variant/activity of Rd3BB (SEQ ID NO: 13)

Molecule	Relative Activity of GLA Variants After No Challenge (NC) [1, 4]	Relative Activity of GLA Variants After Challenge at pH 9.65 [2]	Relative Activity of GLA Variants After Challenge at pH 3.7 [3, 4]	Relative Activity of GLA Variants After No Challenge (NC) [1, 5]	Relative Activity of GLA Variants After Challenge at pH 9.7 [2]	Relative Activity of GLA Variants After Challenge at pH 3.7 [3, 5]
387 (protein, Synthetic Polypeptide sequence of Variant No. 387 of mature Human GLA) LDNGLARTPTMGWLHWERFMCNLDCQEEPDSCISEKLFMEMAERMVSEGWKDAGYEYLCIDDCWMAPQRDSEGRLQADPQRFPHGIRQLANYTHSKGLKLGIYADVGNKTCAGFPGSFGYYDIDAQTFADWGVDLLKFDGCYCDSLENLADGYKHMSLALNRTGRSIVYSCEWPLYMWPFQKPNYTEIRQYCNHWRNFADIDDSWKSIKSILDWTSRNQERIVDVAGPGGWNDPDMLVIGNFGLSWDQQVTQMALWAIMAAPLFMSNDLRHISPQAKALLQDKDVIAINQDPLGKQGYQLRKGDNFEVWERPLSGDAWAVAIINRQEIGGPRSYTIPVASLGKGVACNPACFITQLLPVKRQLGFYNWTSRLKSHINPTGTVLLQLENTMQMSLKDLL	+ (0.5 to 1.5 relative activity over Rd4BB (SEQ ID NO: 15))	− (<0.5 relative activity over Rd4BB (SEQ ID NO: 15))	+ (0.5 to 1.5 relative activity over Rd4BB (SEQ ID NO: 15))			
549 (protein, Synthetic Polypeptide sequence of Variant No. 549 of mature Human GLA) LDNGLARTPTMGWLHWERFMCNLDCQEEPDSCISEKLFMEMAERMVSEGWKDAGYEYLCIDDCWMAPQRDSEGRLQADPQRFPHGIRQLANHVHSKGLKLGIYADVGNKTCAGFPGSFGYYDIDAQTFADWGVDLLKFDGCYCDSLENLADGYKHMSLALNRTGRSIVYSCEWPLYMWPFQKPNYTEIRQYCNHWRNFADIDDSWASIKSILDWTSRNQERIVDVAGPGGWNDPDMLVIGNFGLSWDQQVTQMALWAIMAAPLFMSNDLRHISPQAKALLQDKDVIAINQDPLGQQGYQLRKGDNFEVWERPLSGDAWAVAIINRQEIGGPRSYTIPVASLGKGVACNPACFITQLLPVKRQLGFYNWTSRLKSHINPTGTVLLQLENTMQMSLKDLL				+ (+ = 1.5 to 5 relative activity over Rd3BB (SEQ ID NO: 13))	++ (++ = >5 to 10 relative activity over Rd3BB (SEQ ID NO: 13))	++ (++ = >5 to 10 relative activity over Rd3BB (SEQ ID NO: 13))
547 (protein, Synthetic Polypeptide sequence of Variant No. 547 of mature Human GLA) LDNGLARTPTMGWLHWERFMCNLDCQEEPDSCISEKLFMEMAERMVSEGWKDAGYEYLCIDDCWMAPQRDSEGRLQADPQRFPHGIRQLANHVHSKGLKLGIYADVGNKTCAGFPGSFGYYDIDAQTFADWGVDLLKFDGCYCDSLENLADGYKHMSLALNRTGRSIVYSCEWPLYMWPFQKPNYTEIRQYCNHWRNFADIDDSWASIKSILDWTSRNQERIVDVAGPGGWNDPDMLVIGNFGLSWDQQVTQMALWAIMAAPLFMSNDLRHISPQAKALLQDKDVIAINQDPLGLQGYQLRKGDNFEVWERPLSGDAWAVAIINRQEIGGPRSYTIPVASLGKGVACNPACFITQLLPVKRQLGFYNWTSRLKSHINPTGTVLLQLENTMQMSLKDLL				+ (+ = 1.5 to 5 relative activity over Rd3BB (SEQ ID NO: 13))	++ (++ = >5 to 10 relative activity over Rd3BB (SEQ ID NO: 13))	+ (+ = 1.5 to 5 relative activity over Rd3BB (SEQ ID NO: 13))
390 (protein, Synthetic Polypeptide sequence of Variant No. 390 of mature Human GLA) LDNGLARTPTMGWLHWERFMCNLDCQEEPDSCISEKLFMEMAERMVSEGWKDAGYEYLCIDDCWMAPQRDSEGRLQADPQRFPHGIRQLANYQHSKGLKLGIYADVGNKTCAGFPGSFGYYDIDAQTFADWGVDLLKFDGCYCDSLENLADGYKHMSLALNRTGRSIVYSCEWPLYMWPFQKPNYTEIRQYCNHWRNFADIDDSWKSIKSILDWTSRNQERIVDVAGPGGWNDPDMLVIGNFGLSWDQQVTQMALWAIMAAPLFMSNDLRHISPQAKALLQDKDVIAINQDPLGKQGYQLRKGDNFEVWERPLSGDAWAVAIINRQEIGGPRSYTIPVASLGKGVACNPACFITQLLPVKRQLGFYNWTSRLKSHINPTGTVLLQLENTMQMSLKDLL	+ (0.5 to 1.5 relative activity over Rd4BB (SEQ ID NO: 15))	− (<0.5 relative activity over Rd4BB (SEQ ID NO: 15))	+ (0.5 to 1.5 relative activity over Rd4BB (SEQ ID NO: 15))			
389 (protein, Synthetic Polypeptide sequence of Variant No. 389 of mature Human GLA) LDNGLARTPTMGWLHWERFMCNLDCQEEPDSCISEKLFMEMAERMVSEGWKDAGYEYLCIDDCWMAPQRDSEGRLQADPQRFPHGIRQLANYSHSKGLKLGIYADVGNKTCAGFPGSFGYYDIDAQTFADWGVDLLKFDGCYCDSLENLADGYKHMSLALNRTGRSIVYSCEWPLYMWPFQKPNYTEIRQYCNHWRNFADIDDSWKSIKSILDWTSRNQERIVDVAGPGGWNDPDMLVIGNFGLSWDQQVTQMALWAIMAAPLFMSNDLRHISPQAKALLQDKDVIAINQDPLGKQGYQLRKGDNFEVWERPLSGDAWAVAIINRQEIGGPRSYTIPVASLGKGVACNPACFITQLLPVKRQLGFYNWTSRLKSHINPTGTVLLQLENTMQMSLKDLL	+ (0.5 to 1.5 relative activity over Rd4BB (SEQ ID NO: 15))	− (<0.5 relative activity over Rd4BB (SEQ ID NO: 15))	+ (0.5 to 1.5 relative activity over Rd4BB (SEQ ID NO: 15))			
388 (protein, Synthetic Polypeptide sequence of Variant No. 388 of mature Human GLA) LDNGLARTPTMGWLHWERFMCNLDCQEEPDSCISEKLFMEMAERMVSEGWKDAGYEYLCIDDCWMAPQRDSEGRLQADPQRFPHGIRQLANYLHSKGLKLGIYADVGNKTCAGFPGSFGYYDIDAQTFADWGVDLLKFDGCYCDSLENLADGYKHMSLALNRTGRSIVYSCEWPLYMWPFQKPNYTEIRQYCNHWRNFADIDDSWKSIKSILDWTSRNQERIVDVAGPGGWNDPDMLVIGNFGLSWDQQVTQMALWAIMAAPLFMSNDLRHISPQAKALLQDKDVIAINQDPLGKQGYQLRKGDNFEVWERPLSGDAWAVAIINRQEIGGPRSYTIPVASLGKGVACNPACFITQLLPVKRQLGFYNWTSRLKSHINPTGTVLLQLENTMQMSLKDLL	+ (0.5 to 1.5 relative activity over Rd4BB (SEQ ID NO: 15))	+ (0.5 to 1.5 relative activity over Rd4BB (SEQ ID NO: 15))	− (<0.5 relative activity over Rd4BB (SEQ ID NO: 15))			
360 (protein, Synthetic Polypeptide sequence of Variant No. 360 of mature Human GLA) LDNGLARTPTMGWLHWERFMCNLDCQEEPDSCISEKLFMEMAEEMVSEGWKDAGYEYLCIDDCWMAPQRDSEGRLQADPQRFPHGIRQLANYVHSKGLKLGIYADVGNKTCAGFPGSFGYYDIDAQTFADWGVDLLKFDGCYCDSLENLADGYKHMSLALNRTGRSIVYSCEWPLYMWPFQKPNYTEIRQYCNHWRNFADIDDSWASIKSILDWTSRNQERIVDVAGPGGWNDPDMLVIGNFGLSWDQQVTQMALWAIMAAPLFMSNDLRHISPQAKALLQDKDVIAINQDPLGKQGYQLRKGDNFEVWERPLSGDAWAVAIINRQEIGGPRSYTIPVASLGKGVACNPACFITQLLPVKRQLGFYNWTSRLKSHINPTGTVLLQLENTMQMSLKDLL	+ (0.5 to 1.5 relative activity over Rd4BB (SEQ ID NO: 15))	+ (0.5 to 1.5 relative activity over Rd4BB (SEQ ID NO: 15))	+ (0.5 to 1.5 relative activity over Rd4BB (SEQ ID NO: 15))			
548 (protein, Synthetic Polypeptide sequence of Variant No. 548 of mature Human GLA) LDNGLARTPTMGWLHWERFMCNLDCQEEPDSCISEKLFMEMAERMVSEGWKDAGYEYLCIDDCWMAPQRDSEGRLQADPQRFPHGIRQLANHVHSKGLKLGIYADVGNKTCAGFPGSFGYYDIDAQTFADWGVDLLKFDGCYCDSLENLADGYKHMSLALNRTGRSIVYSCEWPLYMWPFQKPNYTEIRQYCNHWRNFADIDDSWASIKSILDWTSRNQERIVDVAGPGGWNDPDMLVIGNFGLSWDQQVTQMALWAIMAAPLFMSNDLRHISPQAKALLQDKDVIAINQDPLGNQGYQLRKGDNFEVWERPLSGDAWAVAIINRQEIGGPRSYTIPVASLGKGVACNPACFITQLLPVKRQLGFYNWTSRLKSHINPTGTVLLQLENTMQMSLKDLL				+ (+ = 1.5 to 5 relative activity over Rd3BB (SEQ ID NO: 13))	++ (++ = >5 to 10 relative activity over Rd3BB (SEQ ID NO: 13))	+++ (+++ = >10 relative activity over Rd3BB (SEQ ID NO: 13))
